Like-named read-outs stand apart in the source and are kept apart here.
Assays:
Assay in all cases: ITC
[1] = biological target: T1, VcSiaP (Vibrio cholerae, UniProt Q9KR64 23-321)
[2] = biological target: HiSiaP (Haemophilus influenzae, UniProt P44542 24-329)
[3] = biological target: T1, VcSiaP; remark: listed apart in the source

T1 sequence (Q9KR64 23-321): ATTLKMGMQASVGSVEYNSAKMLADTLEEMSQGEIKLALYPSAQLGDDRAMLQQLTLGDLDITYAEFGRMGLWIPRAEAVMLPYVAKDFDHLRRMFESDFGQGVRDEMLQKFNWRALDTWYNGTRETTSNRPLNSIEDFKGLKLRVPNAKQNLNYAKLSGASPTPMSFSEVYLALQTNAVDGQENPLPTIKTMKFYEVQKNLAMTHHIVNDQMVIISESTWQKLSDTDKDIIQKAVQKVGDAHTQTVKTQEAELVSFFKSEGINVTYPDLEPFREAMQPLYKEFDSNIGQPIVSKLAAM
HiSiaP, sequence (P44542 24-329): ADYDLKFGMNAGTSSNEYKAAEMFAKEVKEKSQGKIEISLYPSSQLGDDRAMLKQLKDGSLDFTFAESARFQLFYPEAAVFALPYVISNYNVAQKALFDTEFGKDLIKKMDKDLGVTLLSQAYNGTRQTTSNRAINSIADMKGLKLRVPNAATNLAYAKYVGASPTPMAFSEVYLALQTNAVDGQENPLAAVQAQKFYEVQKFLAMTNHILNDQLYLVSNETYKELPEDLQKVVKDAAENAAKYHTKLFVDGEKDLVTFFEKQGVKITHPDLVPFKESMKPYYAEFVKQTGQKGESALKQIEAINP

B1: VHHVcP #2 (VHH)
VHH: QVQLVESGGRLVQTGGSLRLSCAASGDTFSNYVMGWFRQAPGKEREFVAAISWTGANSYYADSVAGRFTISRDNAKNTVALQMNSLKPEDTAIYYCAADHFHVTHRKYDYWGQGTQVTVSS
[1]
  Kd: 5.61 nM
[2]
  Kd: 10.7 µM
[3]
  Kd: 1.97 nM

— PMC11585616 (2024)
